Laboratory results as given in PMC10499537 (Biomedicine & pharmacotherapy = Biomedecine & …, 2023).

T1: ADAM10 D+C domains construct (species not named for the experiment) (Bos taurus, assumed)
T1 chain: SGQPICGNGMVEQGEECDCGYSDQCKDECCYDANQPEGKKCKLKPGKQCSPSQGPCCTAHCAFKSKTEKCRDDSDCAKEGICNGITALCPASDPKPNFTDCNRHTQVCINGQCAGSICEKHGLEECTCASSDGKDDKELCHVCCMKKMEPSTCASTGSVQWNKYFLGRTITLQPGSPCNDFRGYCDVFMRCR


Assays:
[1] = biological target: T1, ADAM10 D+C domains construct (species …); assay: ELISA
[2] = biological target: human ADAM17 D+C (482-648) (Homo sapiens, UniProt P78536); assay: ELISA
[3] = biological target: human ADAM19 D+C construct (438-646) (Homo sapiens, UniProt Q9H013); assay: ELISA
[4] = biological target: full recombinant ADAM10 ECD (species not named for the experiment) (Bos taurus, assumed, UniProt Q10741); assay: BLI
Chain of full recombinant ADAM10 ECD (species not named for the experiment) (Q10741 20-672): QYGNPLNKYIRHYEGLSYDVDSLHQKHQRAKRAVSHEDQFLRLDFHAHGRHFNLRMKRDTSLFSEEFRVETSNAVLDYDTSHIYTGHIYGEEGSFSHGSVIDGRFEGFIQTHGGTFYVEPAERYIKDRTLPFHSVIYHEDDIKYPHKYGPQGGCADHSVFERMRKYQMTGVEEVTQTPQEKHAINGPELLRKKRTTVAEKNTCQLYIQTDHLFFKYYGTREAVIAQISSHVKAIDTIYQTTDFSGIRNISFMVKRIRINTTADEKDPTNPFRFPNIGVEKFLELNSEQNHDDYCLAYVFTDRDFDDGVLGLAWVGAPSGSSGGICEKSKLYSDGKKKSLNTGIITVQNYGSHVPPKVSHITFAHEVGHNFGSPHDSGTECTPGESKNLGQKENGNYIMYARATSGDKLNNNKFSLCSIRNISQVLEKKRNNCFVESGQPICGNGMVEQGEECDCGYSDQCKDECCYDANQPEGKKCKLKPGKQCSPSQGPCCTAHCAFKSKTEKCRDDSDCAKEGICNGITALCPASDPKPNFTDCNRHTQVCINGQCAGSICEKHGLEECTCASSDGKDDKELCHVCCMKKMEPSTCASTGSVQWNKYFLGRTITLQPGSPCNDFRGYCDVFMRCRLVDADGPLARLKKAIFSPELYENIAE

Chain of human ADAM17 D+C (482-648) (P78536 482-648): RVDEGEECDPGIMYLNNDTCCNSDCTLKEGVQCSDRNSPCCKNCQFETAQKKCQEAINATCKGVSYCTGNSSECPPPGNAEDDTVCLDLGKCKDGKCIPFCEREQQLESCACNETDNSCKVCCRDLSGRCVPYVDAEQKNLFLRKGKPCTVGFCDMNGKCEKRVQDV
Chain of human ADAM19 D+C construct (438-646) (Q9H013 438-646): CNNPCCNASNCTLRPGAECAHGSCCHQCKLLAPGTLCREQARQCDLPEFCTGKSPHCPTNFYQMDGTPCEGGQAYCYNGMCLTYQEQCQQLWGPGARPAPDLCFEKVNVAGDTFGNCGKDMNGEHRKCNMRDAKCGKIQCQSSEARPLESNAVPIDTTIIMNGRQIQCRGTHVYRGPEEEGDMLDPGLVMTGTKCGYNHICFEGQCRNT

Row | binding result [1] | binding result [2] | binding result [3] | Kd [4] | Binder
1 | binds | – | – | – | murine anti-ADAM10 monoclonal antibody 8C7 (IgG) (antibody, V domains shown) VH: QVQLEESGAELARPGSSVKLSCKASGYTFTNYWLQWVKQRTGQGLEWIGAIYPRDGDAKYSQKFKDKASLTVNESSSTAYMHLSALASEDSAVYYCARANYGLYYAMDRWGQGTSVTVSS VL: DIFLTQSPANMSVSPGERVSFSCRASQNIGTNIHWYQQRTNGSPRLLIKYASESISGIPSRFSGSGSGTDFILSINTVESEDIAVYFCQQSNRWPFTFGSGTKLEVI
2 | – | no binding | no binding | ~200 nM | fully human anti-ADAM10 monoclonal antibody 1H5 (IgG) (antibody, V domains shown) VH: QVQLVESGGGLVKPGGSLRLSCAASGFTFSDYYMSWIRQAPGKGLEWVSYISSSGSTIYYADSVKGRFTISRDNAKNSLYLQMNSLRAEDTAVYYCARDFYDSKIFDYWGQGTLVTVSS VL: DIQMTQSPSSLSASVGDRVTITCRASQSISSYLNWYQQKPGKAPKLLIYAASSLQSGVPSRFSGSGSGTDFTLTISSLQPEDVGVYYCMEGLKTPFTFGPGTKLEIK
